Assay results from patent US20110177501.

Experiments:
[1] = tested on: AddAB helicase-nuclease (nuclease-deficient AddA D1172A, AddB D961A) AddA D1172A, AddB D961A (Bacillus subtilis); conditions: unwinding monitored with IDCC-SSB at low ionic strength (20 mM NaCl), 2 mM MgCl2, ATP, 37 C; weaker at 200 mM NaCl
[2] = molecular target: 6-IATR-E. coli SSB (W88C) W88C (mature protein numbering as printed) (Escherichia coli) (UniProt P0AGE0); conditions: data not shown

Substance	activity (bp s-1 per binding site) [1]	activity (fold fluorescence (+/- DNA)) [2]
EcoRI-linearized pBR322	1000	–
poly-dT	–	4.5
